This note sets out measurements from patent US20260069728A1, “MULTI-TARGETING COMPOUND AND USE THEREOF” (Chengdu Shetai Medical Technology Co., Ltd., priority 2023, published 2026).

A short description of data set [1]: Determination of hydrophilicity/lipophilicity (n-octanol/water distribution coefficient). The settings on record: HEPES buffer pH=7.4 / n-octanol. Format: physicochemical. The method, then: 10 μL of Purified ^68Ga-SDYD01 was diluted to 500 μL with HEPES buffer (pH=7.4), then 500 μL of n-octanol was added. The mixture was vortexed for 30 min and then centrifuged. Subsequently, 450 μL each of the aqueous and organic phases were taken and centrifuged again. Then, 100 μL each of the aqueous and organic phases were taken, and the radioactivity was measured using a γ counter to calculate the n-octanol/water distribution coefficient (Log Do/w). The measured Log Do/w value for ^68Ga-SDYD01 was −2.54±0.01, and for ^177Lu-SDYD01 was −2.55±0.05.
10 μL of purified ^68Ga-SDYD02 was diluted to 500 μL with HEPES buffer (pH=7.4), then 500 μL of n-octanol was added. […] Then, 100 μL each of the aqueous and organic phases were taken, and the radioactivity was measured using a γ counter to calculate the n-octanol/water distribution coefficient (Log Do/w). The measured Log Do/w value for ^68Ga-SDYD02 was −2.47±0.03, and for ^177Lu-SDYD02 was −2.35±0.02.
10 μL of purified ^68Ga-SDYD05 was diluted to 500 μL with HEPES buffer (pH=7.4), then 500 μL of n-octanol was added. […] Then, 100 μL each of the aqueous and organic phases were taken, and the radioactivity was measured using a γ counter to calculate the n-octanol/water distribution coefficient (Log Do/w). The measured Log Do/w value for ^68Ga-SDYD05 was −2.37±0.02, and for ^177Lu-SDYD05 was −2.46±0.05. […]

A short description of data set [2]: Small animal PET imaging and biodistribution study. The settings on record: NSG, mouse, in vivo, iv, 7.4 MBq, total radioactivity. Type of data set: in vivo, NSG mice. The method, boiled down: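 NSG mice bearing ~150 mm^3 subcutaneous U87 MG tumours received ~7.4 MBq of 68Ga-labelled tracer i.v., with micro-PET/CT static 20-min 3D scans at 30, 60 and 120 min. For biodistribution, mice were euthanised at 30/60/120 min, or 30/60/90 min for SDYD07, SDYD08 and SDYD07-1. Tissue radioactivity was decay-corrected and expressed as SUV and %ID/g.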

Where [3] appears, read: absolute uptake value in the tumor.

Each structure is given as a SMILES string. Where two headings read alike, the source gives them in different places. *1 amine or outer side, *2 acyl side, *3 side chain or, on linkers, in order; H or OH if unused. Where a SMILES comes first, the peptide text is derived from it. Bridges are numbered along the chain shown (N, C = ends). [ ]: non-standard residue; d: D form. The star is where a group is joined. X1 = N#C[C@@H]1CC(F)(F)CN1C(=O)CNC(=O)c1ccnc2ccc(OCCCN3CCN(*)CC3)cc12; DOTA = O=C(O)CN1CCN(CC(=O)O)CCN(CC(=O)*)CCN(CC(=O)O)CC1; 2Nal = N[C@@H](Cc1ccc2ccccc2c1)C(=O)O; Cit = NC(=O)NCCC[C@H](N)C(=O)O; Suc = O=C(CCC(=O)[*:2])[*:1]; AEEA = NCCOCCOCC(=O)O Bounds are passed on as bounds.

Regarding `N#C[C@@H]1CC(F)(F)CN1C(=O)CNC(=O)c1ccnc2ccc(OCCCN3CCN(C(=O)CCC(=O)N[C@@H](CCCCNC(=O)CN4CCN(CC(=O)O)CCN(CC(=O)O)CCN(CC(=O)O)CC4)C(=O)NCCOCCOCC(=O)NCCOCCOCC(=O)N[C@@H](CCCNC(=N)N)C(=O)N[C@@H](CCCNC(=N)N)C(=O)N[C@@H](Cc4ccc5ccccc5c4)C(=O)N[C@H]4CSSC[C@@H](C(=O)N[C@@H](CCCNC(=N)N)C(N)=O)NC(=O)[C@H](CCCNC(N)=O)NC(=O)[C@H](CCCNC(=N)N)NC(=O)[C@H](Cc5ccc(O)cc5)NC(=O)[C@@H]5CCCN5C(=O)[C@H](CCCCN)NC(=O)[C@H](CCCCN)NC(=O)[C@H](CCCNC(N)=O)NC(=O)[C@H](Cc5ccc(O)cc5)NC4=O)CC3)cc12` [^68Ga-SDYD01, metal not drawn] ({X1-Suc}-K(DOTA)[AEEA][AEEA]RR[2Nal]CY[Cit]KKPYR[Cit]CR-NH2; disulfide 7-16), the “n-octanol/water distribution coefficient (Log Do/w)” value in data set [1] was −2.54±0.01. In addition, in data set [2] (setting [3]), the tissue uptake at 0.5 h was at least 10 %ID/g and the tissue uptake at 1 h is at least 10 %ID/g.

Turning to `CCCCCC(=O)N[C@H]1CSCc2cc(CSCCNC(=O)[C@H](CCCCNC(=O)CN3CCN(CC(=O)O)CCN(CC(=O)O)CCN(CC(=O)O)CC3)NC(=O)COCCOCCNC(=O)COCCOCCNC(=O)CCN3C(=O)CC(SCCNC(=O)CCC(=O)NCc4ccc(NC(=O)COCC(=O)N[C@H](Cc5ccccc5)C(=O)N[C@@H](CCC(N)=O)C(=O)N[C@@H](Cc5c[nH]c6ccccc56)C(=O)N[C@@H](C)C(=O)N[C@H](C(=O)NCC(=O)N[C@@H](Cc5c[nH]cn5)C(=O)NC(CC(C)C)CC(C)C)C(C)C)cc4)C3=O)cc(c2)CSC[C@@H](C(=O)O)NC(=O)[C@H](Cc2ccccc2)NC(=O)[C@H](CCC(N)=O)NC(=O)C([C@@H](C)O)NC(=O)[C@@H]2CCCN2C(=O)[C@@H]2CCCN2C1=O` (stereo partly drawn) [^68Ga-SDYD04, metal not drawn], the “n-octanol/water distribution coefficient (Log Do/w)” value in data set [1] is given as −1.63±0.07. Besides, the tissue uptake at 0.5 h in data set [2] (30 minutes post-injection, read-out: absolute uptake value in the tumor) is at least 10 %ID/g. Besides, the tissue uptake at 1 h in data set [2] (60 minutes post-injection, read-out: absolute uptake value in the tumor) is at least 10 %ID/g.
